Test results as given in IntAct's records for PubMed 9571151.

B1: Tyrosine-protein kinase BTK (Homo sapiens), Q06187 (parent)
chain: MAAVILESIFLKRSQQKKKTSPLNFKKRLFLLTVHKLSYYEYDFERGRRGSKKGSIDVEKITCVETVVPEKNPPPERQIPRRGEESSEMEQISIIERFPYPFQVVYDEGPLYVFSPTEELRKRWIHQLKNVIRYNSDLVQKYHPCFWIDGQYLCCSQTAKNAMGCQILENRNGSLKPGSSHRKTKKPLPPTPEEDQILKKPLPPEPAAAPVSTSELKKVVALYDYMPMNANDLQLRKGDEYFILEESNLPWWRARDKNGQEGYIPSNYVTEAEDSIEMYEWYSKHMTRSQAEQLLKQEGKEGGFIVRDSSKAGKYTVSVFAKSTGDPQGVIRHYVVCSTPQSQYYLAEKHLFSTIPELINYHQHNSAGLISRLKYPVSQQNKNAPSTAGLGYGSWEIDPKDLTFLKELGTGQFGVVKYGKWRGQYDVAIKMIKEGSMSEDEFIEEAKVMMNLSHEKLVQLYGVCTKQRPIFIITEYMANGCLLNYLREMRHRFQTQQLLEMCKDVCEAMEYLESKQFLHRDLAARNCLVNDQGVVKVSDFGLSRYVLDDEYTSSVGSKFPVRWSPPEVLMYSKFSSKSDIWAFGVLMWEIYSLGKMPYERFTNSETAEHIAQGLRLYRPHLASEKVYTIMYSCWHEKADERPTFKILLSNILDVMDEES
partner: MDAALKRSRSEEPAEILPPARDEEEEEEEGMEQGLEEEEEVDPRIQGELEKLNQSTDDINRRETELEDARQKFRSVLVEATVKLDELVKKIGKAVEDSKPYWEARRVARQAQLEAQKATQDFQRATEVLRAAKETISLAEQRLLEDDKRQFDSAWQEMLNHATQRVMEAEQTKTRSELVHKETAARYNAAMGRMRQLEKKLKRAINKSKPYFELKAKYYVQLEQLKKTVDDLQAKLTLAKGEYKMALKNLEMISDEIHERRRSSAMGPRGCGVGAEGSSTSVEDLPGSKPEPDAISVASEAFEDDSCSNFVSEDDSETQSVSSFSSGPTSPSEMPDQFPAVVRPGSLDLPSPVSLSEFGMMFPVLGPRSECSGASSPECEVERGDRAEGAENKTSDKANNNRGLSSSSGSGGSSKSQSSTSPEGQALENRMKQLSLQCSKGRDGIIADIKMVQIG

Variants of: B1
Conditions: with 3bp5_human SH3BP5, O60239

Variant	effect of a mutation on the interaction
W251L;W252L	decreasing interaction
